Experimental data published in US20050130287A1, “Purifying process of soluble proteins of the l.obliqua bristles through prothrombin activation: process for a partial determination of the amino acids sequence of the prothrombin activator; process for determining the prothrombin activation of fraction II, n-terminal and internal fragments sequences” (priority 2002, published 2005).

Columns and labels:
prothrombin = prothrombin (UniProt P00734)
Abz-YQTFFNPRTFGSQ-EDDnp = tested on: T1, Abz-YQTFFNPRTFGSQ-EDDnp
T1 sequence: YQTFFNPRTFGSQ

[1] = target: purified human fibrinogen (UniProt P02671)

Row | Substance | Coagulation Time (S) of fibrinogen, with Ca2+ (prothrombin) | Coagulation Time (S) of fibrinogen, without Ca2+ (prothrombin) | Kcat (Abz-YQTFFNPRTFGSQ-EDDnp) | Kcat/Kmapp (Abz-YQTFFNPRTFGSQ-EDDnp) | Kmapp (Abz-YQTFFNPRTFGSQ-EDDnp) | Coagulation Time (S) of fibrinogen, without Factor II [1] | Factor X activation, hydrolysis of S-2765 (Factor X) | Factor X activation, hydrolysis of S-2765 (p-nitroaniline formed) (Factor X)
1 | Factor Xa | 120 s |  |  |  |  |  |  | 
2 | Lonomia obliqua Prothrombin Activator Protease (Lopap) | 60 s | 240 s | Kcat 5,32 sec^-1 | Kcat/K mapp 1,2×106 M^-1 sec -1 | Kmapp 4,5 µM | Lopap + / F II - / FG +: >1200 | Lopap did not present capacity of activating factor X | When Factor X (30 nM) was added to the experiment, the substrate hydrolysis obtained was of 2,6 µM
